Laboratory results: patent US20070269427A1 (GlaxoSmithKline, published 2007)
Substitutions are numbered along the chain they refer to.

Columns and labels:
[1] = biological target: T1, rat MAG-Fc fusion protein (R&D systems; 538-MG) (rat; human, UniProt P07722 20-516); experiment: direct binding ELISA on coated rat MAG-Fc (FIG. 6)
T1 construct: Bought reagent; not shown: human Fc
T1 sequence (looked up): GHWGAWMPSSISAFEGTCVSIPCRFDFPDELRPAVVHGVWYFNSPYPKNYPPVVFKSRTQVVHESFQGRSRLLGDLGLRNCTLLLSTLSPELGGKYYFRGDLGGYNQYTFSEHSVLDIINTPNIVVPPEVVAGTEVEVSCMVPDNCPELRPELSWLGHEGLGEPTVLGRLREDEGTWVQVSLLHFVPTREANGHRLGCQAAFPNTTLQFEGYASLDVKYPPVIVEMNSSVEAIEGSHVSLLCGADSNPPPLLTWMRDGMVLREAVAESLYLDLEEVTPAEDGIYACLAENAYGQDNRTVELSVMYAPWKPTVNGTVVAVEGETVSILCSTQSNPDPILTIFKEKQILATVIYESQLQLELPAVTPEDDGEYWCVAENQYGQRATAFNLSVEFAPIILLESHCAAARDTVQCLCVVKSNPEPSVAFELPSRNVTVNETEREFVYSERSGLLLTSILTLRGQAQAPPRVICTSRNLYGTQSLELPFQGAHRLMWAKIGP
Procedure: (§1) 96-well Nunc Maxisorp plates were coated overnight at 4° C. with rat MAG-Fc fusion protein (2.5 μg/ml; R&D Systems; Cat.No. 538-MG) in PBS. Plates were washed twice with PBS containing Tween20 (0.1% v/v; PBST) and blocked with PBS containing BSA (1% w/v) for 1 h at room temperature (RT). Purified humanised antibody was adjusted to a starting concentration of 5 μg/ml in blocking buffer and then serial diluted. Antibody samples were incubated 1 h at RT and plates then washed 3× with PBST. Secondary antibody (Goat anti-human light chain specific-peroxidase conjugate; Sigma A-7164) was added diluted 1/5000 in blocking buffer and incubated for 1 h at RT. Wells were washed three times as above and binding detected by adding substrate (OPD tablets dissolved according to instructions; Sigma P-9187). Colour development was monitored and the reaction stopped using 3M H₂SO₄. Colour development was read at 490 nm.

[2] = biological target: T1, rat MAG-Fc fusion protein (R&D systems; …); experiment: direct binding ELISA on coated rat MAG-Fc, purified antibody
Procedure: as §1

B1: Humanised anti-MAG antibody BVh1/CVl1 (antibody, V domains shown)
VH: QVQLVQSGSELKKPGASVKVSCKASGYTFTNYGMNWVRQAPGQGLEWMGWINTYTGEPTYADDFTGRFVFSLDTSVSTAYLQISSLKAEDTAVYYCARNPINYYGINYEGYVMDYWGQGTLVTVSS
VL: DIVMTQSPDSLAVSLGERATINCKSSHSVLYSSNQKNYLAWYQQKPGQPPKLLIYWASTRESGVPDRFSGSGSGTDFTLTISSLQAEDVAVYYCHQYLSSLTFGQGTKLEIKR
notes: also called BVh1/CVI1
binding result [1]: binds

B2: Humanised anti-MAG antibody BVh3/CVl3 (antibody, IgG1, V domains shown)
VH: B1 VH with V93T, Y95F
VL: DIVMTQSPDSLAVSLGERATINCKSSHSVLYSSNQKNYLAWYQQKPGQPPKLLIYWASTRESGVPDRFSGSGSGTDFTLTISSLHTEDVAVYYCHQYLSSLTFGQGTKLEIKR
notes: also called BVh3/CVI3
binding result [2]: binds
